{
  "source": "paper PMC5018250",
  "about": "“Structure of the Bacterial Sex F Pilus Reveals an Assembly of a Stoichiometric Protein-Phospholipid Complex” (Cell, 2016)",
  "target": "the molecule itself",
  "assay": "cryo-EM structure; purified F pili in Tris-HCl, 200 mM NaCl, pH 8.0, vitrified; helical reconstruction (IHRSR), two classes with axial rise 12.5 A and 13.2 A, 5.0 A maps",
  "data": [
    {"protein": "F TraA pilin (natural protein, E. coli (F plasmid; pOX38 in DH5alpha), UniProt P04737 52-121, looked up, TraA pilin of the F pilus encoded by the F plasmid derivative pOX38; N terminus 4 aa longer than that of pED208 TraA and disordered in the maps; Stands in the pilus as a helical polymer; two filament populations (axial rise 12.5 A and 13.2 A); also called F pilin; F pilus subunit; source: produced in vivo from the pOX38-Cm plasmid in E. coli DH5alpha) AGSSGQDLMASGNTTVKATFGKDSSVVKWVVLAEVLVGAVMYMMTKNVKFLAGFAIISVFIAVGMAVVGL", "values": [
      {"measurement": "binding result", "value": "binds"}
    ]}
  ]
}
